Measurements as given in paper PMC6694833, “Rational Design of Zika Virus Subunit Vaccine with Enhanced Efficacy” (Journal of Virology, 2019).

B1: ZV-67, ZIKV EDIII-specific neutralizing MAb (antibody, V domains shown)
VH: QAQLQQSGTGLARPGASVKLSCKASGYTFTSYGISWVTQRAGQGLEWIGVIYPRSGNTYYNEKFRGKATLTADKSSSSAYMELRGLTAEDSAVYFCARENYGSVYWGQGTTLTVSS
VL: DIVMTQSQKFMSTSVGDRVSITCKASQNVGTAVAWYQQKPGQSPKLLIYSASNRYTGVPDRFTGSGSGTDFTLTISNMQSEDLADYFCQQFSSYPYTFGGGTKLEIK
notes: also called MAb ZV-67; human MAb ZV-67; source: bought: Absolute Antibody
B2: ZV-2, ZIKV EDIII-specific nonneutralizing mouse MAb (antibody, V domains shown)
VH: QVQLQESGAELMKPGASVKLSCKTSGYTFIGYWIEWLKQRPGHGLEWVGEIFPGSGRTKYNEKFKGRATFTADTSSNMAYMQLSSLTTEDSAIYYCARYYYGSYYALDYWGQGTSVTVSS
VL: DIVMTQSPSSLSVSAGEKVTLSCKSSQSLLHSGNQKNYLAWYQQKPGQAPKLLIYGASTRESGVPDRFTGSGSGTDFTLTISSVQAEDLAVYYCQNDHSYPLTFGAGTKLELK
notes: also called MAb ZV-2; source: bought: BEI Resources

Tests used:
[1] = target: ZV-54; experiment: ELISA; conditions: read at the highest MAb concentration plotted (about 250 ng/ml, estimated from the x axis); parent: est. 3.7; read off a plot
[2] = target: ZKA64-LALA; experiment: ELISA; conditions: read at the highest MAb concentration plotted (about 2000 ng/ml, estimated from the x axis); parent: est. 3.4; read off a plot
[3] = target: ZV-67, ZIKV EDIII-specific neutralizing MAb; experiment: ELISA; conditions: read at the highest MAb concentration plotted (about 500 ng/ml, estimated from the x axis); parent: est. 3.6; read off a plot
[4] = target: ZV-2, ZIKV EDIII-specific nonneutralizing mouse MAb; experiment: ELISA; conditions: read at the highest MAb concentration plotted (about 500 ng/ml, estimated from the x axis); parent: est. 3.6; read off a plot
[5] = target: Z004; experiment: ELISA; conditions: read at the highest MAb concentration plotted (about 2000 ng/ml, estimated from the x axis); parent: est. 3.5; read off a plot
[6] = target: T1, ZIKV EDIII protein containing residues 298 to 409 (wild type) fused with a C-terminal human IgG1 Fc tag (Zika virus, strain ZikaSPH2015 (GenBank …, UniProt A0A0U3FSM8, strain)); experiment: ELISA; plates coated with wild-type or mutant ZIKV EDIII protein overnight at 4°C, blocked with 2% fat-free milk in PBST; serially diluted MAbs, then HRP-conjugated anti-mouse IgG-Fab or anti-human IgG-Fab, 1 h at 37°C; absorbance at 450 nm; conditions: both partners purified
T1 construct: also called wild-type EDIII; WT EDIII; not shown: Fc (human IgG1), C-terminal, kept

Molecule	response [1] [A450]	response [2] [A450]	response [3] [A450]	response [4] [A450]	response [5] [A450]	binding result [6]
ZIKV EDIII protein containing residues 298 to 409 (wild type) fused with a C-terminal human IgG1 Fc tag M375N; E377T	3.7	3.4	3.6	0.15	3.5	
B1						binds
B2						binds
